For experiment [1], the system named is various cell lines. Nature of the experiment: Cell viability of various cell lines exposed to free DM1. Type of experiment: cell-based. Particulars: control. The protocol: The ADCs were tested for the ability to target and kill BCMA-expressing myeloma cells. The CellTiter-Glo® Luminescent Cell Viability Assay is a homogeneous method to determine the number of viable cells in culture based on quantitation of the ATP present, which signals the presence of metabolically active cells. The CellTiter-Glo® Assay is applicable to cytotoxicity assays (see http://www.promega.com/products/cell-health-assays/cell-viability-assays/celltiter_glo-luminescent-cell-viability-assay/for more information). The cell viability assay was used to assess the relative killing capacity of various ADCs on various multiple myeloma cell lines and B-cell lines. The protocol provided in the Cell Titer-Glo kit (Promega G7572) was followed. In short, 5×10^3 target cells in 90 ul RPMI 1640, 10% FBS were aliquoted into clear, flat bottom, white walled 96 well plates (Costar #3903). The ADCs were diluted into a 10× stock to create 500 nM maytansine drug equivalents. Each ADC was serially diluted in 2-fold dilutions in RPMI 1640, 10% FBS starting with 500 nM stock. […] Luminescence was read on an EnVision™ Multilabel reader (PerkinElmer) or Analyst HT plate reader (LJL Biosciences). The data was analyzed and graphed using GraphPad Prism™ to determine the relative efficacy of the ADCs on various cancer cell lines. […]

In experiment [2] the target is [6xHistidine-SUMO]-huBCMA (SEQ ID NO:350) and its carboxy terminal clipped forms (Homo sapiens, UniProt Q02223). The experiment can be described thus: Size exclusion chromatography and LC/MS of antibody complexes with Sumo-huBCMA and clipped forms. Type of experiment: binding. The following applies: SEC and LC/MS; listed as 29C12. The text has this:
To determine which forms of 6×His-SUMO-huBCMA were bound to the anti-huBCMA antibodies, the SEC fractions were isolated and analyzed. Carboxy-terminus fragments of the extracellular domain of human BCMA were generated as clipped forms from the rhuBCMA fusion protein (6×His::Sumo::huBCMA(aa 5-51)::GGS::G3::Avi) of SEQ ID NO:350, as shown in FIG. 45.
A Superdex 200™ 10/30 cm SEC column (GE Healthcare Life Sciences) was used according to the manufacturer's recommendations and run in phosphate buffered saline (PBS). Incubations of antibody with excess levels of sumoBCMA were performed at room temperature for at least 30 minutes.
(§1) A Superdex 200™ 10/30 cm SEC column (GE Healthcare Life Sciences) was used according to the manufacturer's recommended condision and run in phosphate buffered saline (PBS). Incubations of antibody with excess levels of sumoBCMA were performed at room temperature for at least 30 minutes.
5 ug of total proteins were reduced in 50 mM Tris/4 M guanidine/9 mM DTT, pH 8.0 at 55° C. for 15 min, and analyzed in Agilent LCTOF system using a Vydac C8 column, 2.1 mm ID×150 mm, […] particle size. […] TOF MS conditions included capillary voltage of 4000 V, drying gas flow at 10 L/min, dry gas temperature at 300° C., nebulizer gas flow at 40 L/min, and fragmentor voltage of 300 V. MS data was analyzed in Agilent MassHunter™ Qualitative Analysis program.
(Size exclusion chromatography separates by hydrodynamic size, large species first.)

Experiment [3] has as its target T1, Sumo (cleaved from SumoBCMA) (Saccharomyces cerevisiae, UniProt Q12306).
T1 construct: 6xHis (N)
The experiment can be described thus: Size exclusion chromatography control with Sumo. Type of experiment: binding. Particulars: SEC control. The protocol: as §1

Experiment [4] addresses T2, human BCMA (Homo sapiens, UniProt Q02223, N81S).
T2 construct: expressed in transfected cells
T2 sequence (Q02223 1-184 N81S): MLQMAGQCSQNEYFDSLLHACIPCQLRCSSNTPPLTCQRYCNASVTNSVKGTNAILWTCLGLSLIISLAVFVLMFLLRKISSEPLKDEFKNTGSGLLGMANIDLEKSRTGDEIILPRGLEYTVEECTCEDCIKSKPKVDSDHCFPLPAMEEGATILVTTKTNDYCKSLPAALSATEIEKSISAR
Nature of the experiment: FACS binding on cells transiently transfected to express full length BCMA. The protocol:
(§2) An important criterion is exquisite selectivity for wild-type human BCMA expressed on the surface of cells. FACS binding on cells transiently transfected to express full length BCMA, TACI, or BAFF-R was performed using standard techniques. Approximately 40×10^6 of the transiently-transfected target cells were resuspended in a staining solution (2% goat serum, 1% rabbit serum, 0.02% azide in PBS) and aliquoted into round-bottom, 96-well plate (Corning Incorp., Acton, Mass.) as per the experiment design. The cells were incubated at 4 degrees celsius for 30 minutes to block non-specific sites. The antibodies were titrated into the staining solution. The cells were rinsed in a rinse solution (PBS+0.02% azide) by resuspending the cells in 200 ul/well. The cells were centrifuged at 1500 rpm at 4 degrees celsius for 7 minutes. The rinse solution was removed and the rinse step was repeated. The cells were resuspended in the appropriate antibody solution (see the matrix in TABLE 4) at 30 ul/well and incubated at 4 degrees celsius for 30 minutes. […] For the mouse IgG1 negative control and the two mouse antibodies (1.183 and 1.288), the secondary reagent was an anti-mouse IgG-PE conjugate (BD Pharmingen Cat. 550589). The cells/antibodies were rinsed as described above to remove excess/unbound antibody. […] Samples were read at 532 nm wavelength on FACS. […]

For experiment [5], the target named is T3, TACI (Homo sapiens, UniProt O14836).
T3 construct: expressed in transfected cells
T3 sequence (O14836 1-293): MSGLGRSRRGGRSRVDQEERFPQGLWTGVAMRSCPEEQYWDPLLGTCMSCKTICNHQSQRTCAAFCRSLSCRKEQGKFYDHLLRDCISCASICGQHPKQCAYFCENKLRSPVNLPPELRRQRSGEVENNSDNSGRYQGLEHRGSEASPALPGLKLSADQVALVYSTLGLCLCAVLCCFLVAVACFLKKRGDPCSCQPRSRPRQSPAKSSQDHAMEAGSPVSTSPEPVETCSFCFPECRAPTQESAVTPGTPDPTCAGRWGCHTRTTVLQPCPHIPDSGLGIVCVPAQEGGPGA
Nature of the experiment: FACS binding on cells transiently transfected to express full length TACI. The protocol:
as §2
(In general: A flow cytometer gives signals particle by particle.)

[6xHistidine-SUMO]-huBCMA (SEQ ID NO:350) and its carboxy terminal clipped forms, sequence (Q02223 with tags, fused parts or gaps limits assumed): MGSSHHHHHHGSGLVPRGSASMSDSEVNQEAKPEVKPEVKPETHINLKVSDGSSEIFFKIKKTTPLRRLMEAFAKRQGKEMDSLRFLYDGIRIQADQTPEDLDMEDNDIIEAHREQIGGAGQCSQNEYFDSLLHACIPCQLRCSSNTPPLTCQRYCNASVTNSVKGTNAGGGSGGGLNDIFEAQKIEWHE
T1 sequence (Q12306 1-98 limits assumed): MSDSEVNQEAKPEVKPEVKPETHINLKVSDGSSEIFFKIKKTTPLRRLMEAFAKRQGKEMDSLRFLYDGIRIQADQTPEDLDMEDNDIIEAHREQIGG

Regarding `COc1cc2cc(c1Cl)N(C)C(=O)C[C@H](OC(=O)[C@H](C)N(C)C(=O)CCS)[C@]1(C)O[C@H]1[C@H](C)[C@@H]1C[C@@](O)(NC(=O)O1)[C@H](OC)/C=C/C=C(\C)C2` [DM1], the “killing by free DM1” value in experiment [1] was “killed by free DM1”.

B1: Ab-8: anti-huBCMA mAb of the second campaign, Vh SEQ ID NO:220, Vl SEQ ID NO:254 (antibody, V domains shown)
VH: EVQLLESGGALVQPGGSLRLSCAASGFTFSSYAMNWVRQAPGKGLEWVSAISVGGDTYYADSVKGRFTISRDNSKNTLYLQMNSLRAEDTAVYYCAKDQVTMVRGVWYYYGLDVWGQGTTVTVSS
VL: DIVMIQSPLSLPVTPGEPASISCRSSQSLLHSNGNNYLDWYLQKPGQSPHLLISLGSNRTSGVPDRFSGSGSGTDFTLKISRVEAEDVGVYYCMQALQPPRRFGQGTKLEIKR
Regarding B1, the “binding to full-length and truncated fragments of human BCMA” value in experiment [2] was “bound full-length and truncated forms of BCMA”. The “binding to Sumo” value in experiment [3] is “did not bind to Sumo”.

B2: Ab-6: anti-huBCMA mAb, Vh SEQ ID NO:216, Vl SEQ ID NO:250 (antibody, V domains shown)
VH: QVQLVESGGGVVQPGRSLRLSCAASGFTFSSYGLHWVRQAPGKGLEWVALISYDGSNKYYADSVKGRFTISRDNSKNTLYLQMNSLRAEDTAVYYCWYSSSWTPLDYWGQGTLVTVSS
VL: DIQMTQSPSSLSASVGDRVTITCRASQGIRNDLGWYQQKPGKAPKRLIYAASSLQSGVPSRFSGSGSGTEFTLTISSLQPEDFATYYCLQYYSYPLTFGGGTKVEIKR
Turning to B2, in experiment [4], the “BCMA (FACS binding)” value is recorded as “+ (A sample was considered positive for binding if the MFI was two times the negative control value)”. Moreover, the “TACI (FACS binding)” value in experiment [5] is reported as “+ (A sample was considered positive for binding if the MFI was two times the negative control value)”.
